± gives the uncertainty stated by the source.
Test: self-splicing fitness, log relative to wild type (ln ratio); higher = more splicing; Tetrahymena group I intron in knt gene, E. coli kanamycin selection, DiMSum; sequences stand for … in CUCUCU…GGAGGGAAAAGUUAUCAGGCAUGCACCUGGUAGCUAGUCUUUAAACCAAUAGAUUGCAUCGGUUUAAAAGGCAAGACCGUCAAAUUGCGGGAAAGGGGUCAACAGCCGUUCAGUACCAAGUCUCAGGGGAAACUUUGAGAUGGCCUUGCAAAGGGUAUGGUAAUAAGCUGACGGACAUGGUCCUAACCACGCAGCCAAGUCCUAAGUCAACAGAUCUUCUGUUGAUAUGGAUGCAGUUCACAGACUAAAUGUCGGUCGGGGAAGAUGUAUUCUUCUCAUAAGAUAUAGUCGGACCUCUCCUUAAUGGGAGCUAGCGGAUGAAGUGAUGCAACACUGGAGCCGCUGGGAACUAAUUUGUAUGCGAAAGUAUAUUGAUUAGUUUUGGAGUACUCGUGGUCG
Outline: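 The eight P1ex-region nucleotides of an intron in the knt kanamycin-resistance gene on pET-22b(+) were all randomised and the library put into E. coli BL21(DE3). Six replicate transformations were grown overnight at 37°C or 30°C on LB agar with or without 25 μg/mL kanamycin, together with 100 μg/mL carbenicillin, 50 μM IPTG and 0.2% rhamnose. Colonies were pooled and amplicon-sequenced on an Illumina HiSeq 2500. Fitness from DiMSum is the error-weighted combination of wild-type-normalised replicate fold changes, kanamycin over none.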

Sequence	self-splicing fitness (ln) (30 °C)	self-splicing fitness (ln) (37 °C)
GCUUAGCAAUAUUACGAUAA	-2.12 ± 0.13	-1.69 ± 0.12
CAUGAGCAAUAUUACGUUAA	-3.17 ± 0.32	-2.29 ± 0.26
AAGAAGCAAUAUUACGCGAG	-0.936 ± 0.081	-0.561 ± 0.1
AACAAGCAAUAUUACGAAGG	-2.77 ± 0.19	-1.95 ± 0.24
UAAUAGCAAUAUUACGUUGA	-2.67 ± 0.2	-2.54 ± 0.18
AUGAAGCAAUAUUACGGAGA	-2.55 ± 0.33	-0.873 ± 0.23
CGGCAGCAAUAUUACGAAUU	-3 ± 0.23	-2.6 ± 0.33
GGCUAGCAAUAUUACGCAUG	-1.11 ± 0.11	-1.04 ± 0.11
GGUCAGCAAUAUUACGAAGC	-0.892 ± 0.11	-0.0665 ± 0.13
AAGUAGCAAUAUUACGCUUC	–	-1.41 ± 0.2
UAUUAGCAAUAUUACGCCAA	-1.65 ± 0.2	-1.68 ± 0.23
GCCUAGCAAUAUUACGGUGA	-1.09 ± 0.067	-0.113 ± 0.073
CGUCAGCAAUAUUACGAAUC	-3.1 ± 0.27	-0.891 ± 0.33
GCUAAGCAAUAUUACGUAGA	-0.845 ± 0.055	-0.223 ± 0.069
AAGGAGCAAUAUUACGUUUU	-3.02 ± 0.22	-1.94 ± 0.2
CCUUAGCAAUAUUACGAACA	–	-0.92 ± 0.29
CGCAAGCAAUAUUACGAGUC	-3.43 ± 0.13	-2.97 ± 0.19
AUUGAGCAAUAUUACGCGUU	-3.02 ± 0.26	-2.34 ± 0.23
AUGCAGCAAUAUUACGUUGG	-2.96 ± 0.098	-2.33 ± 0.17
CCCAAGCAAUAUUACGUAGC	-2.5 ± 0.42	-2.74 ± 0.39
UGCGAGCAAUAUUACGCCAU	–	-2.45 ± 0.49
CGACAGCAAUAUUACGUGCC	-1.11 ± 0.12	-0.684 ± 0.14
UUCGAGCAAUAUUACGGAUA	-2.76 ± 0.28	-2.08 ± 0.25
UUCCAGCAAUAUUACGACGC	-3.25 ± 0.24	-3.03 ± 0.17

Sequence	self-splicing fitness (ln) (30 °C)	self-splicing fitness (ln) (37 °C)
UAUAAGCAAUAUUACGCGAG	-1.39 ± 0.12	-1.02 ± 0.11
CAUGAGCAAUAUUACGUCAA	-4.04 ± 0.33	-2.64 ± 0.33
UAGAAGCAAUAUUACGUCUG	-1.12 ± 0.064	-0.959 ± 0.076
CUAGAGCAAUAUUACGAGUG	-0.496 ± 0.067	-0.868 ± 0.085
UCCGAGCAAUAUUACGAUCG	-3.27 ± 0.27	-2.51 ± 0.34
GCUAAGCAAUAUUACGUGGC	-2.87 ± 0.23	-2.46 ± 0.41
UUGCAGCAAUAUUACGUGGA	-2.52 ± 0.18	-1.27 ± 0.13
GACUAGCAAUAUUACGGUCC	–	-1.49 ± 0.42
ACCCAGCAAUAUUACGCCCU	-0.0641 ± 0.052	0.262 ± 0.091
GCAGAGCAAUAUUACGGAAG	-2.98 ± 0.28	-1.65 ± 0.18
CAGGAGCAAUAUUACGCCUU	-1.86 ± 0.24	-1.99 ± 0.33
GUGAAGCAAUAUUACGAUUG	-1.38 ± 0.11	-1.78 ± 0.14
CUGGAGCAAUAUUACGUAAA	-3.78 ± 0.36	-2.22 ± 0.3
ACGCAGCAAUAUUACGGGUG	-1.56 ± 0.068	-0.519 ± 0.076
AGUUAGCAAUAUUACGGUUU	-0.98 ± 0.071	-0.317 ± 0.1
ACAUAGCAAUAUUACGGGCG	-1.28 ± 0.09	-1 ± 0.096
UUCGAGCAAUAUUACGCCUU	-3.09 ± 0.26	-1.64 ± 0.26
CCUCAGCAAUAUUACGAGGA	-2.54 ± 0.29	-1.09 ± 0.14
ACCAAGCAAUAUUACGAUCC	-1.83 ± 0.093	-0.778 ± 0.14
GCCCAGCAAUAUUACGUCUU	-0.849 ± 0.061	-0.668 ± 0.09
CUGUAGCAAUAUUACGACUC	-4.11 ± 0.42	-1 ± 0.3
CUCAAGCAAUAUUACGUAGG	-0.955 ± 0.068	-0.324 ± 0.11
UACUAGCAAUAUUACGAAGA	-2.32 ± 0.19	-1.86 ± 0.25
AGCCAGCAAUAUUACGACAG	-3.67 ± 0.27	-2.74 ± 0.27
